Laboratory results published in US20170189545A1.

What was measured:
GLP-1 receptor [1] = assay: competition with I-125 exendin-4 (9-39) on RIN-m5F cells expressing GLP-1R, gamma counting
GLP-1 receptor [2] = assay: comparison of IC50 values, competition with I-125 exendin-4 (9-39) on RIN-m5F cells

Substance | IC50 (GLP-1 receptor [1]) [nM] | fold better activity than Comparative example 1a (Lys^12-PEG5K-Ex4) (GLP-1 receptor [2]) [fold] | fold better activity than Comparative example 1b (Lys^27-PEG5K-Ex4) (GLP-1 receptor [2]) [fold] | fold better activity than Comparative example 2 (Nter-PEG5K-Ex4) (GLP-1 receptor [2]) [fold]
exendin-4 (peptide) | 0.23 |  |  | 
C40-PEG5K-Ex4 (linear) (peptide) | 1.04 | 6 | 2 | 120
